This assay deals with T1, SEMA3A-FC (R&D systems) (Homo sapiens (Human), UniProt Q14563 22-771).
T1 construct: Bought reagent; not shown: Fc portion of the bought fusion, detected with anti-human IgG
T1 sequence: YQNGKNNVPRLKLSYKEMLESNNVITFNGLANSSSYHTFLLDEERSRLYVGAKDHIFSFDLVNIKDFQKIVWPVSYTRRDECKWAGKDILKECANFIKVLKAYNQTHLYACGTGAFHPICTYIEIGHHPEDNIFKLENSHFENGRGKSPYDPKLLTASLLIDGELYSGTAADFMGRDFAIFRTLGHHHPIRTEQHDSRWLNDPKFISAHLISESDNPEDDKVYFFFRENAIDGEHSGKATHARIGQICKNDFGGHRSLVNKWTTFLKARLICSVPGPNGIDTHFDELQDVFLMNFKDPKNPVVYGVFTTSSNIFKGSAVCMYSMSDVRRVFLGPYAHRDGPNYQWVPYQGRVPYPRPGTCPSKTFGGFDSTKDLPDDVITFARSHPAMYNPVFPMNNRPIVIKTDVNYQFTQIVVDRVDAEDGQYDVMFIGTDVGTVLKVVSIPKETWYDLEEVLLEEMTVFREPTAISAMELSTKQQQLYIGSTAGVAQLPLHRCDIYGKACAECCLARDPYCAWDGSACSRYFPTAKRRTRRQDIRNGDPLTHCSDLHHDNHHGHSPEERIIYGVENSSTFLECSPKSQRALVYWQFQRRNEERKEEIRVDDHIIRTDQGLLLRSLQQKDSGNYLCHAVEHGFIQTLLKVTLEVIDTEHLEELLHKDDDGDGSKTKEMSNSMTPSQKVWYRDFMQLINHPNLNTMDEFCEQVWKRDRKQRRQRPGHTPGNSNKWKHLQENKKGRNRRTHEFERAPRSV
The experiment in a line: saturation binding, trap coated on plate, SEMA3A-FC titrated, anti-human IgG-HRP chemiluminescence. The protocol: Sema 3A and AP-VEGF₁₆₅ binding assays. Saturation curves for the determinations of KD of binding to SEMA 3A or VEGF165 were obtained as follow. Wells of high protein binding 96 well plates (Maxisorp, Nunc) were coated with purified traps diluted in PBS and blocked afterward with binding buffer (PBS containing 2% casein and 0.05% Tween 20). The SEMA3A-FC (R&D systems) or AP-VEGF165 ligands were diluted in binding buffer over an extensive range of concentrations and added to wells. Following an overnight incubation, wells were washed with PBS containing 0.05% tween. Bound SEMA3a-FC was detected using an HRP-linked anti-Human IgG (Biorad) and ECL substrate (Pierce). Alternatively, bound AP-VEGF165 was detected using CPD star substrate (Roche). The Chemiluminescent signal was acquired on a TECAN reader. Dissociation constant (KD) were determined by non-linear curve fitting using the Graph Pad prism software.

B1: NRP1 trap AE (receptor)
chain: FRNDKCGDTIKIESPGYLTSPGYPHSYHPSEKCEWLIQAPDPYQRIMINFNPHFDLEDRDCKYDYVEVFDGENENGHFRGKFCGKIAPPPVVSSGPFLFIKFVSDYETHGAGFSIRYELFKRGPECSQNYTTPSGVIKSPGFPEKYPNSLECTYIVFAPKMSEIILEFESFDLEPDSNPPGGMFCRYDRLEIWDGFPDVGPHIGRYCGQKTPGRIRSSSGILSMVFYTDSAIAKEGFSANYSVLQSSVSEDFKCMEALGMESGEIHSDQITASSQYSTNWSAERSRLNYPENGWTPGEKSYREWIQVDLGLLRFVTAVGTQGAISKETKKKYYVKTYKIDVSSNGEDWITIKEGNKPVLFQGNTNPTDVVVAVFPKPLITRFVRIKPATWETGISMRFEVYGCKITDYPCSGMLGMVSGLISDSQITSSNQGDRNWMPENIRLVTSRSGWALPPAPHSYINEWLQIDLGEEKIVRGIIIQGGKHRENKVFMRKFKIGYSNNGSDWKMIMDDSKRKAKSFEGNNNYDTPELRTFPALSTRFIRIYPERATHGGLGLRMELLGCRSGSKENLYFQG
notes: Signal peptide not trimmed
Regarding B1, the binding result is reported as “no binding”.

B2: NRP1 trap Q (receptor)
chain: FRNDKCGDTIKIESPGYLTSPGYPHSYHPSEKCEWLIQAPDPYQRIMINFNPHFDLEDRDCKYDYVEVFDGENENGHFRGKFCGKIAPPPVVSSGPFLFIKFVSDYETHGAGFSIRYELFKRGPECSQNYTTPSGVIKSPGFPEKYPNSLECTYIVFAPKMSEIILEFESFDLEPDSNPPGGMFCRYDRLEIWDGFPDVGPHIGRYCGQKTPGRIRSSSGILSMVFYTDSAIAKEGFSANYSVLQSSVSEDFKCMEALGMESGEIHSDQITASSQASTNWSAERSRLNYPENGWTPGEDSYREWIQVDLGLLRFVTAVGTQGAISKETKKKYYVKTYKIDVSSNGEDWITIKEGNKPVLFQGNTNPTDVVVAVFPKPLITRFVRIKPATWETGISMRFEVYGCKITDYPCSGMLGMVSGLISDSQITSSNQGDRNWMPENIRLVTSRSGWALPPAPHSYINEWLQIDLGEEKIVRGIIIQGGKHRENKVFMRKFKIGYSNNGSDWKMIMDDSKRKAKSFEGNNNYDTPELRTFPALSTRFIRIYPERATHGGLGLRMELLGCRSGSKENLYFQG
notes: a1a2-b1b2 with Y297A (held in the entry); Signal peptide not trimmed
With B2, the binding result is reported as “no binding”.

B3: NRP1 trap AK (receptor)
chain: FRNDKRGPECSQNYTTPSGVIKSPGFPEKYPNSLECTYIVFAPKMSEIILEFESFDLEPDSNPPGGMFCRYDRLEIWDGFPDVGPHIGRYCGQKTPGRIRSSSGILSMVFYTDSAIAKEGFSANYSVLQSSVSEDFKCMEALGMESGEIHSDQITASSQYSTNWSAERSRLNYPENGWTPGEDSYREWIQVDLGLLRFVTAVGTQGAISKETKKKYYVKTYKIDVSSNGEDWITIKEGNKPVLFQGNTNPTDVVVAVFPKPLITRFVRIKPATWETGISMRFEVYGCKITDYPCSGMLGMVSGLISDSQITSSNQGDRNWMPENIRLVTSRSGWALPPAPHSYINEWLQIDLGEEKIVRGIIIQGGKHRENKVFMRKFKIGYSNNGSDWKMIMDDSKRKAKSFEGNNNYDTPELRTFPALSTRFIRIYPERATHGGLGLRMELLGCRSGSKENLYFQG
notes: a2b1b2; Signal peptide not trimmed
What is called Kd is the free concentration of one partner at which half of the binding sites on the other are occupied at equilibrium, for simple one-to-one binding. With B3, binding was put at a Kd of 4.4 nM.

B4: NRP1 trap AJ (receptor)
chain: FRNDKRGPECSQNYTTPSGVIKSPGFPEKYPNSLECTYIVFAPKMSEIILEFESFDLEPDSNPPGGMFCRYDRLEIWDGFPDVGPHIGRYCGQKTPGRIRSSSGILSMVFYTDSAIAKEGFSANYSVLQSSVSEDFKCMEALGMESGEIHSDQITASSQYSTNWSAERSRLNYPENGWTPGEDSYREWIQVDLGLLRFVTAVGTQGAISKETKKKYYVKTYKIDVSSNGEDWITIKEGNKPVLFQGNTNPTDVVVAVFPKPLITRFVRIKPATWETGISMRFEVYGCKITDYPCSGMLGMVSGLISDSQITSSNQGDRNWMPENIRLVTSRSGWALPPAPHSYINEWLQIDLGEEKIVRGIIIQGGKHRENKVFMRKFKIGYSNNGSDWKMIMDDSKRKAKSFEGNNNYDTPELRTFPALSTRFIRIYPERATHGGLGLRMELLGCEVEAPTAGPTTPNGNLVDECDDDQANCHSGTGDDFQLTGGTTVLATEKPTVIDSTIQSEFPTYGFNCEFGWGSHKTFCHWEHDNHVQLKWSVLTSKTGPIQDHTGDGNFIYSQADENQKGKVARLVSPVVYSQNSAHCMTFWYHMSGSHVGTLRVKLRYQKPEEYDQLVWMAIGHQGDHWKEGRVLLHKSLKLYQVIFEGEIGKGNLGGIAVDDISINNHISQEDCAKPADLDKKNPEIKIDETGSTPGYEGEGEGDKNISRKPGNVLKTLDPRSGSKENLYFQG
notes: a2b1b2c; Signal peptide not trimmed
Regarding B4, the dissociation constant Kd came to 2.4 nM.

B5: NRP1 trap Z (receptor)
chain: FRNDKCGDTIKIESPGYLTSPGYPHSYHPSEKCEWLIQAPDPYQRIMINFNPHFDLEDRDCKYDYVEVFDGENENGHFRGKFCGKIAPPPVVSSGPFLFIKFVSDYETHGAGFSIRYELFKRGPECSQNYTTPSGVIKSPGFPEKYPNSLECTYIVFAPKMSEIILEFESFDLEPDSNPPGGMFCRYDRLEIWDGFPDVGPHIGRYCGQKTPGRIRSSSGILSMVFYTDSAIAKEGFSANYSVLQSSVSEDFKCMEALGMESGEIHSDQITASSQYSTNWSAERSRLNYPENGWTPGKKSYREWIQVDLGLLRFVTAVGTQGAISKETKKKYYVKTYKIDVSSNGEDWITIKEGNKPVLFQGNTNPTDVVVAVFPKPLITRFVRIKPATWETGISMRFEVYGCKITDYPCSGMLGMVSGLISDSQITSSNQGDRNWMPENIRLVTSRSGWALPPAPHSYINEWLQIDLGEEKIVRGIIIQGGKHRENKVFMRKFKIGYSNNGSDWKMIMDDSKRKAKSFEGNNNYDTPELRTFPALSTRFIRIYPERATHGGLGLRMELLGCEVEAPTAGPTTPNGNLVDECDDDQANCHSGTGDDFQLTGGTTVLATEKPTVIDSTIQSEFPTYGFNCEFGWGSHKTFCHWEHDNHVQLKWSVLTSKTGPIQDHTGDGNFIYSQADENQKGKVARLVSPVVYSQNSAHCMTFWYHMSGSHVGTLRVKLRYQKPEEYDQLVWMAIGHQGDHWKEGRVLLHKSLKLYQVIFEGEIGKGNLGGIAVDDISINNHISQEDCAKPADLDKKNPEIKIDETGSTPGYEGEGEGDKNISRKPGNVLKTLDPRSGSKENLYFQG
notes: a1a2-b1b2-c with E319K, D320K (held in the entry); Signal peptide not trimmed
As for B5, binding was characterised by a dissociation constant (Kd) of 4.44 nM.

B6: NRP1 trap M (receptor)
chain: FRNDKCGDTIKIESPGYLTSPGYPHSYHPSEKCEWLIQAPDPYQRIMINFNPHFDLEDRDCKYDYVEVFDGENENGHFRGKFCGKIAPPPVVSSGPFLFIKFVSDYETHGAGFSIRYELFKRGPECSQNYTTPSGVIKSPGFPEKYPNSLECTYIVFAPKMSEIILEFESFDLEPDSNPPGGMFCRYDRLEIWDGFPDVGPHIGRYCGQKTPGRIRSSSGILSMVFYTDSAIAKEGFSANYSVLQSSVSEDFKCMEALGMESGEIHSDQITASSQYSTNWSAERSRLNYPENGWTPGEDSYREWIQVDLGLLRFVTAVGTQGAISKETKKKYYVKTYKIDVSSNGEDWITIKEGNKPVLFQGNTNPTDVVVAVFPKPLITRFVRIKPATWETGISMRFEVYGCRSGSKENLYFQG
notes: a1a2-b1; Signal peptide not trimmed
Regarding B6, the dissociation constant Kd turned out to be 0.95 nM.

B7: NRP1 trap P (receptor)
chain: FRNDKCGDTIKIESPGYLTSPGYPHSYHPSEKCEWLIQAPDPYQRIMINFNPHFDLEDRDCKYDYVEVFDGENENGHFRGKFCGKIAPPPVVSSGPFLFIKFVSDYETHGAGFSIRYELFKRGPECSQNYTTPSGVIKSPGFPEKYPNSLECTYIVFAPKMSEIILEFESFDLEPDSNPPGGMFCRYDRLEIWDGFPDVGPHIGRYCGQKTPGRIRSSSGILSMVFYTDSAIAKEGFSANYSVLQSSVSEDFKCMEALGMESGEIHSDQITASSQASTNWSAERSRLNYPENGWTPGEDSYREWIQVDLGLLRFVTAVGTQGAISKETKKKYYVKTYKIDVSSNGEDWITIKEGNKPVLFQGNTNPTDVVVAVFPKPLITRFVRIKPATWETGISMRFEVYGCRSGSKENLYFQG
notes: a1a2-b1 with Y297A (held in the entry); Signal peptide not trimmed
As for B7, the binding result is “no binding”.

B8: NRP1 trap AD (receptor)
chain: FRNDKCGDTIKIESPGYLTSPGYPHSYHPSEKCEWLIQAPDPYQRIMINFNPHFDLEDRDCKYDYVEVFDGENENGHFRGKFCGKIAPPPVVSSGPFLFIKFVSDYETHGAGFSIRYELFKRGPECSQNYTTPSGVIKSPGFPEKYPNSLECTYIVFAPKMSEIILEFESFDLEPDSNPPGGMFCRYDRLEIWDGFPDVGPHIGRYCGQKTPGRIRSSSGILSMVFYTDSAIAKEGFSANYSVLQSSVSEDFKCMEALGMESGEIHSDQITASSQYSTNWSAERSRLNYPENGWTPGEKSYREWIQVDLGLLRFVTAVGTQGAISKETKKKYYVKTYKIDVSSNGEDWITIKEGNKPVLFQGNTNPTDVVVAVFPKPLITRFVRIKPATWETGISMRFEVYGCRSGSKENLYFQG
notes: Signal peptide not trimmed
As for B8, the binding result is “no binding”.
